Here are results for 22 molecules from patent publication US20130058955A1 (Genentech, published 2013).

Positions count from the first letter of the chain named. Several values for one entry are separate records, joined by “and”; a condition that tells them apart may be missing. Equal entries are not always repeated.

Sequences and labels used below:
B1: 3F5 IgG (antibody, V domains shown)
VH: EVQLVESGGGLVQPGGSLRLSCAASGFTFSNTYISWVRQAPGKGLEWVASITPSSGQTDYADSVKGRFTISADTSKNTAYLQMNSLRAEDTAVYYCARTWLLRWVMDYWGQGTLVTVSS
VL: DIQMTQSPSSLSASVGDRVTITCRASQDVSTAVAWYQQKPGKAPKLLIYSASFLYSGVPSRFSGSGSGTDFTLTISSLQPEDFATYYCQQSYTTPPTFGQGTKVEIK
B2: 2C11 IgG (antibody, name in Kabat numbering, V domains shown)
VH: B1 VH with Q57S
VL: B1 VL with T94Q
B3: 2H5 IgG (antibody, name in Kabat numbering, V domains shown)
VH: B1 VH with Q57S
VL: B1 VL with T94N
B4: 1F11/3F5 IgG (antibody, V domains shown)
VH: B1 VH
VL: B1 VL with S52K
notes: also called double mutant 1F11/3F5
B5: 3F5, Fab displayed on phage (Fab, V domains shown)
VH: B1 VH
VL: B1 VL
notes: Monovalent Fab on M13 phage
B6: 4G7, Fab displayed on phage (Fab, name in Kabat numbering, V domains shown)
VH: B1 VH with Q57S, Y108G
VL: B1 VL
notes: Heavy chain mutant of 1E3 (H3); Monovalent Fab on M13 phage
B7: 1F11, Fab displayed on phage (Fab, V domains shown)
VH: B1 VH with Q57S
VL: B1 VL with S52K
notes: Monovalent Fab on M13 phage
B8: 2H5, Fab displayed on phage (Fab, name in Kabat numbering, V domains shown)
VH: B1 VH with Q57S
VL: B1 VL with T94N
notes: Light chain mutant of 1E3 (CDR L3); Monovalent Fab on M13 phage
B9: 2C11/4G7 double mutant, Fab displayed on phage (Fab, name in Kabat numbering, V domains shown)
VH: B1 VH with Q57S, Y108G
VL: B1 VL with T94Q
B10: 2H5/4G7 double mutant, Fab displayed on phage (Fab, name in Kabat numbering, V domains shown)
VH: B1 VH with Q57S, Y108G
VL: B1 VL with T94N
B11: 1F11/3E4 double mutant, Fab displayed on phage (Fab, name in Kabat numbering, V domains shown)
VH: B1 VH with I34M, Q57S
VL: B1 VL with S52K
B12: 3E4, Fab displayed on phage (Fab, name in Kabat numbering, V domains shown)
VH: B1 VH with I34M, Q57S
VL: B1 VL
notes: Heavy chain mutant of 1E3 (CDR H1); Monovalent Fab on M13 phage
B13: 2C11/3E4 double mutant, Fab displayed on phage (Fab, name in Kabat numbering, V domains shown)
VH: B1 VH with I34M, Q57S
VL: B1 VL with T94Q
B14: 2C11, Fab displayed on phage (Fab, name in Kabat numbering, V domains shown)
VH: B1 VH with Q57S
VL: B1 VL with T94Q
notes: as for B8
B15: 2H5/3E4 double mutant, Fab displayed on phage (Fab, name in Kabat numbering, V domains shown)
VH: B1 VH with I34M, Q57S
VL: B1 VL with T94N
B16: 1F11/4G7 double mutant, Fab displayed on phage (Fab, name in Kabat numbering, V domains shown)
VH: B1 VH with Q57S, Y108G
VL: B1 VL with S52K
B17: 2C11/3F5 IgG (antibody, name in Kabat numbering, V domains shown)
VH: B1 VH
VL: B1 VL with T94Q
B18: 2H5/3F5 IgG (antibody, name in Kabat numbering, V domains shown)
VH: B1 VH
VL: B1 VL with T94N
B19: 1F11/2H5/3F5 triple mutant IgG (antibody, name in Kabat numbering, V domains shown)
VH: B1 VH
VL: B1 VL with S52K, T94N
notes: human kappa IgG1
B20: 1F11/2C11/3F5 triple mutant IgG (antibody, name in Kabat numbering, V domains shown)
VH: B1 VH
VL: B1 VL with S52K, T94Q
notes: human kappa IgG1
B21: 1E3 IgG (antibody, V domains shown)
VH: B1 VH with Q57S
VL: B1 VL
notes: also called parental 1E3
B22: 1F11 IgG (antibody, V domains shown)
VH: B1 VH with Q57S
VL: B1 VL with S52K

The first assay addresses T1, K63-linked diubiquitin (Boston Biochem) (human, UniProt P0CG48 1-76, isopeptide bond between the C-terminus of one ubiquitin and Lys63 of the other).
T1 construct: Bought product; also called K63 diUb
The assay can be described thus: western blot, 1 ug/mL IgG, LI-COR Odyssey. Here is the method: (§1) Gels were transferred at 30 V constant for 1 hour by wet transfer in 10% methanol and 1× NuPAGE transfer buffer (Invitrogen) to 0.2 μm nitrocellulose (Invitrogen). Non-specific binding sites on the membranes were blocked by incubation in 5% milk in PBST for 1 hour at 25° C. with shaking. […] The membranes were washed three times in PBST with shaking. The IgGs were detected by incubating the membrane in a 1:10,000 dilution of a goat anti-human Fc fragment-specific IR Dye 800CW-conjugated secondary antibody (Rockland Immunochemicals) in 5% milk in PBST for 30 minutes at 25° C. with shaking. The membranes were then washed three times in PBST followed by one wash in PBS. The secondary antibody was detected and quantified using the L1-COR Odyssey infrared imaging system (L1-COR Biosciences).
(A western blot detects proteins with antibodies after separation by electrophoresis.)
On to B1, for which the binding result is “no binding (tested: 1000 ng per lane)”.
Regarding B2, the binding result is “no binding (tested: 1000 ng per lane)”.
B3: the binding result was “no binding (tested: 1000 ng per lane)”.
Regarding B4, the binding result was “no binding (tested: 1000 ng per lane)”.

The target in a further assay is T2, linear diubiquitin (Boston Biochem) (human, UniProt P0CG48 1-152).
T2 construct: Bought product
Put plainly: phage IC50 competition ELISA with soluble linear diubiquitin. The protocol: An initial titer ELISA was done to determine the amount of phage at which a signal of OD₄₅₀=0.5 would be achieved. […] The coated plates were blocked with 200 μL/well of 2.5% milk in PBST for one hour at 25° C. with shaking. Twelve two-fold serial dilutions of the phage were made in 2.5% milk in PBST from OD₂₆₈=4.0 to OD₂₆₈=0.002. After one hour, the blocking buffer was dumped off of the plate and 100 μL/well of each phage dilution was added and incubated at 25° C. for 15 minutes with shaking. The plate was then washed six times with PBST using a plate washer. A 1:5000 dilution of an anti-M13 phage-HRP-conjugated secondary antibody (GE Healthcare) in PBST was used for detection of phage binding. 100 μL/well of the secondary dilution was added and the plate was incubated at 25° C. for 30 minutes with shaking. The plate was then washed 12 times with PBST using a plate washer and twice with PBS manually. Bound secondary antibody was detected using a TMB substrate (KPL) followed by quenching with an equal volume of 1 M phosphoric acid.
Background: ELISA stands for enzyme-linked immunosorbent assay.
For orientation: IC50 means the point on the concentration scale where inhibition reaches its midpoint. Higher therefore signals weaker potency in that assay. Take B5: the IC50 was 12 nM and 9 nM and 13 nM.
On the same count and under the same terms, as for B6, the figure is 23 nM and 16 nM and 19 nM; as for B7, 14 nM; as for B8, 17 nM.
In turn, B9 registered an IC50 of 31 nM.
On the same count and under the same terms, as for B10, the figure is 23 nM; as for B11, 12 nM.
On the same count and under the same terms, as for B12, the figure is 44 nM and 33 nM and 26 nM; as for B13, 24 nM.
For the molecule B14, the half-inhibitory concentration (IC50) is 20 nM.
B15 had an IC50 of 26 nM.
B16 yielded an IC50 of 13 nM.

Another assay concerns the target T2, linear diubiquitin (Boston Biochem). Put plainly: western blot, 1 ug/mL IgG, LI-COR Odyssey quantification; Ub2 bands seen at 111 (faint), 333 and 1000 ng. The protocol:
as §1
Consider B1, for which the “signal of the Ub2 band at 1000 ng linear diUb (number under the arrow)” value (“signal of the Ub2 band” below) stood at 16.4.
In the case of B17, the “signal of the Ub2 band” value came to 13.1.
As to B18, the “signal of the Ub2 band” value is 16.7.

In a further assay the target is T1, K63-linked diubiquitin (Boston Biochem). The assay can be described thus: western blot, 1 ug/mL IgG, LI-COR Odyssey. This is another data set of the same source.
As to B19, the binding result is reported as “no binding (tested: 1000 ng per lane)”.
As to B20, the binding result is “no binding (tested: 1000 ng per lane)”.
The same measure, in the same setting: as for B17, the entry is “no binding (tested: 1000 ng per lane)”.
Still for that read-out and setting: as for B18, the entry is “no binding (tested: 1000 ng per lane)”.

For the next assay, the target named is T3, monoubiquitin (Boston Biochem) (human, UniProt P0CG48 1-76).
T3 construct: Bought product
Put plainly: phage specificity ELISA, 1 ug/mL coated antigen, anti-M13-HRP. Here is the method: (§2) The panel of ubiquitin proteins was immobilized on 96-well Maxisorb immunoplates (NUNC) (see FIGS. 7A and 7B). Plates were coated at 4° C. overnight with 1 μg/mL of each protein in 50 mM sodium carbonate buffer, pH 9.6. The coated plates were blocked with 200 μL/well of 2.5% milk in PBST for one hour at 25° C. with shaking. Six two-fold serial dilutions of phage from OD₂₆₈=1.0 to OD₂₆₈=0.03 were made in 2.5% milk in PBST. After one hour, the blocking buffer was dumped off of the plate and 100 μL of the phage serial dilutions was added. Plates were incubated at 25° C. for one hour with shaking. The plate was then washed six times with PBST using a plate washer. A 1:5,000 dilution of an anti-M13 horseradish peroxidase (HRP)-conjugated secondary antibody (GE Healthcare) in PBST was used for detection of phage binding. […] The plate was then washed six times with PBST using a plate washer and twice manually with PBS. Bound secondary antibody was detected using a TMB substrate (KPL) followed by quenching with an equal volume of 1 M phosphoric acid. The absorbance was read at 450 nm.
As to B5, the binding result was “no binding (tested: phage OD268 1)”.
Regarding B6, the binding result is listed as “no binding (tested: phage OD268 1)”.
In the case of B8, the binding result is reported as “no binding (tested: phage OD268 1)”.
In the case of B12, the binding result is reported as “no binding (tested: phage OD268 1)”.
As to B14, the binding result was “no binding (tested: phage OD268 1)”.

For another assay, the target named is T4, K11-linked diubiquitin (Genentech) (human, UniProt P0CG48 1-76, isopeptide bond between the C-terminus of one ubiquitin and Lys11 of the other).
T4 construct: also called K11 diUb
The description is as above. The protocol:
as §2
Turning to B5, the binding result is on record as “no binding (tested: phage OD268 1)”.
B6: the binding result is “no binding (tested: phage OD268 1)”.
The same measure, in the same setting: under B8 stands “no binding (tested: phage OD268 1)”.
B12: the binding result is “no binding (tested: phage OD268 1)”.
On to B14, for which the binding result was “no binding (tested: phage OD268 1)”.

In a further assay the target is T5, K48-linked diubiquitin (Boston Biochem) (human, UniProt P0CG48 1-76, isopeptide bond between the C-terminus of one ubiquitin and Lys48 of the other).
T5 construct: Bought product; also called K48 diUb
Described as above. The protocol: as §2
As for B5, the binding result was “no binding (tested: phage OD268 1)”.
Turning to B6, the binding result is recorded as “no binding (tested: phage OD268 1)”.
The same measure, in the same setting: as for B8, the entry is “no binding (tested: phage OD268 1)”; as for B12, “no binding (tested: phage OD268 1)”.
On to B14, for which the binding result is on record as “no binding (tested: phage OD268 1)”.

In a further assay the target is T2, linear diubiquitin (Boston Biochem). The assay can be described thus: western blot, 1 ug/mL IgG, LI-COR Odyssey quantification; Ub2 bands seen at 333 (faint) and 1000 ng. The protocol:
as §1
For the molecule B21, the “signal of the Ub2 band” value was 8.7.
Regarding B2, the “signal of the Ub2 band” value was 10.8.
The same measure, in the same setting: under B3 stands 10.4; under B22, 13.1.
